Source: patent US11981713B2, “Method for manufacturing a stable emulsion for peptide delivery” (OSE IMMUNOTHERAPEUTICS, priority 2017, dated 2024)

Key:
Type in all cases: physicochemical
[1] = Comparative experiment: emulsion made with high shear mixer, consistency and peptide oxidation; conditions: high shear mixer batches at 5000 and 8000 rpm
Method: The suspension prepared as described in Example 1 was mixed with the same adjuvant, in the same ratio, except that mixing was conducted by means of a high shear mixer (Silverson® Verso) having a rotor-stator configuration. […] Other batches obtained with the same mixer at 5000 and 8000 rpm led to peptide degradation. Specifically, 8.5% oxidation of peptide […] (SEQ ID NO: 5) was noted after 6 weeks storage at 4° C. and still 2% oxidation at −20° C.

[2] = Chemical stability of the emulsion (peptide content by LC/MS); conditions: for Content after 2 month at 5° C.: emulsion of Example 5, 2 month at 5° C.; for Content after 2 month at 25° C.: emulsion of Example 5, 2 month at 25° C.; for Content after 2 month at −20° C.: emulsion of Example 5, 2 month at −20° C.; for Initial content: emulsion of Example 5, initial
Method: The chemical stability of the peptides contained in the emulsion prepared according to Example 5 is assessed by means of the following method.
A sample of 0.9 g of the emulsion of Example 5 is accurately weighted and mixed with 0.1% TFA in DMSO so as to fill a 5 mL volumetric flask. The mixture is then vortexed for 2 minutes and centrifuged for 7 minutes at 4000 rpm. The lower layer is then analyzed by Liquid Chromatography/Mass Spectroscopy (LC/MS) using the following chromatographic conditions:
Column: Advance Bio Peptide Mapping LC column, 2.1×250 mm, 2.7 μm, C18, 120 Å, Agilent® reference n° 651750-902 or equivalent
Column temperature: 35° C.±2° C.
Sample temperature: 5° C.
Needle wash: 0.1% Trifluoroacetic acid (TFA) in dimethylsulfoxide (DMSO)
Mobile phase: Eluent A: 0.2% TFA in 5% acetonitrile
• Eluent B: 0.2% TFA in 95% acetonitrile Gradient table: […]
A standard solution is prepared by transferring 0.9 mL of the batch suspension described in Example 1 with 1.1 mL of Montanide ISA 51 in a 10.0 mL volumetric flask, then vortexing and centrifuging the mixture as described above. The lower layer thus obtained is analyzed in the same conditions as above.
The concentration of each peptide is expressed in mg/g using the formula:
[formula] where: A: is the peak area of each peptide in the sample solution S: is the peak area of each peptide in the standard solution W: is the sample weight expressed in g

[3] = Peptide concentration in emulsions prepared with different stirring times; conditions: initial concentration in emulsion
Method: Emulsions according to this invention were prepared as described in Example 5, using different stirring times.

Row | Substance | oxidation ([1]; after 6 weeks storage at 4° C.) [%] | oxidation ([1]; storage at −20° C.) [%] | Content after 2 month at 5° C. [2] [mg/g] | Content after 2 month at 25° C. [2] [mg/g] | Content after 2 month at −20° C. [2] [mg/g] | Initial content [2] [mg/g] | Concentration ([3]; stirring time 5 minutes) [µg/mL] | Concentration ([3]; stirring time 10 minutes) [µg/mL] | Concentration ([3]; stirring time 15 minutes) [µg/mL]
1 | IMIGHLVGV [MPS-214] | 16.5 | 4 | 0.51 | 0.50 | 0.51 | 0.53 | 530 | 530 | 530
2 | KLBPVQLWV [MPS-102] | – | – | 0.55 | 0.55 | 0.55 | 0.57 | 560 | 570 | 560
3 | LLTFWNPPV [MPS-213] | – | – | 0.54 | 0.54 | 0.55 | 0.56 | 560 | 560 | 560
4 | RLLQETELV [MPS-112] | – | – | 0.55 | 0.55 | 0.55 | 0.57 | 560 | 570 | 560
5 | SMPPPGTRV [MPS-103] | 8.5 | 2 | 0.54 | 0.54 | 0.55 | 0.55 | 530 | 560 | 540
6 | YLSGADLNL [MPS-200] | – | – | 0.56 | 0.55 | 0.56 | 0.58 | 570 | 570 | 570
7 | aKXVAAWTLKAAa [MPS-7, peptide with X and a respectively indicating cyclohexylalanine and d-alanine] | – | – | 0.56 | 0.56 | 0.56 | 0.58 | 580 | 580 | 570
